In publication PMC5166503 (The Journal of Cell Biology, 2016):
Read-outs that look alike come from different tables or passages of the source.

Assays:
[1] = biological target: EGFP-CaMzt1 (C. albicans); test: MST
[2] = biological target: CaMzt1-EGFP (C. albicans); test: MST
[3] = biological target: Caγ-TuSC–CaMzt1 complex (preassembled, co-expressed) (C. albicans) (UniProt Q59PZ2); test: MST
[4] = biological target: EGFP-CaMzt1^D22A (C. albicans); test: MST
[5] = biological target: MOZART1-EGFP (purified) (human) (UniProt Q08AG7); test: MST
Sequence of MOZART1-EGFP (purified) (human) (Q08AG7 whole entry): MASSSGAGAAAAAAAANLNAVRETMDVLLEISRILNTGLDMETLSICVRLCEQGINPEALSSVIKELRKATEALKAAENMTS

[6] = biological target: Saccharomyces cerevisiae γ-tubulin small complex (Scγ-TuSC) (S. cerevisiae) (UniProt P38863); test: SEC
[7] = biological target: Candida albicans γ-tubulin small complex (Caγ-TuSC) (C. albicans) (UniProt Q59PZ2); test: SEC
[8] = biological target: Candida albicans γ-tubulin small complex (Caγ-TuSC) (C. albicans) (UniProt Q59PZ2); test: SEC; remark: listed apart in the source
[9] = biological target: T1, GST–CaSpc72-N (1–420) (C. albicans, UniProt Q5AGV5 1-420); test: SEC
T1 sequence (looked up): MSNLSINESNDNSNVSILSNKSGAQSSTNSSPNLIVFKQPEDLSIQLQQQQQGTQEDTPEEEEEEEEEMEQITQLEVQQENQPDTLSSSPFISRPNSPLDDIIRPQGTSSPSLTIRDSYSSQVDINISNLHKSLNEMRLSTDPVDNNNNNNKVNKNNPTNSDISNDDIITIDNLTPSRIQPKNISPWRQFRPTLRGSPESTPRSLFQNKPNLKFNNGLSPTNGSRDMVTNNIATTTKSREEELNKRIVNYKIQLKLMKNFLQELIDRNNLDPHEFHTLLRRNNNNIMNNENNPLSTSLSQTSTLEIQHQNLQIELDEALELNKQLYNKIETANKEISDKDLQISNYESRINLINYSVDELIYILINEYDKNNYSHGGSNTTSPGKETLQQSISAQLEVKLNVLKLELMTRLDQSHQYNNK

[10] = biological target: the molecule itself; test: SEC
[11] = biological target: Candida albicans γ-tubulin small complex (Caγ-TuSC) (C. albicans, UniProt Q59PZ2 1-871; A0A1D8PS42 1-785; O93807 1-502); test: co-purification after co-expression

CaSpc110^CM1 fragment (117–176 aa) (domain or fragment)
Kd [1]: 1.42 µM

GST–CaSpc110-N (1–222) (domain or fragment)
fold lower affinity than with EGFP-CaMzt1 [2]: 3 fold
fold higher affinity than to Caγ-TuSC [3]: 3 fold
Kd [1]: 0.187 µM
fold reduction of affinity against EGFP-CaMzt1 [4]: 6 fold
Kd [5]: 0.489 µM

Saccharomyces cerevisiae γ-tubulin small complex (Scγ-TuSC), P38863 1-823; P53540 1-846; P53378 1-473
percent oligomeric [6]: > 90%

Candida albicans γ-tubulin small complex (Caγ-TuSC), Q59PZ2 1-871; A0A1D8PS42 1-785; O93807 1-502
percent oligomeric [7]: 30%
percent oligomeric [8]: 5%

B1: EGFP-CaMzt1 (natural protein, C. albicans, UniProt A0A1D8PMH7 1-58, looked up)
chain: MPPDPNSMIVELARLMNCVQLDETVLQLCIKLLDEGANPQQLAKHILAIKKETNSILT
binding result [9]: binds
stoichiometry N [10]: 3 to 4

B2: CaMzt1-3Flag (natural protein, C. albicans, UniProt A0A1D8PMH7 1-58, looked up)
chain: MPPDPNSMIVELARLMNCVQLDETVLQLCIKLLDEGANPQQLAKHILAIKKETNSILT
stoichiometry N [11]: 1

B3: GST-CaMzt1 (natural protein, C. albicans, UniProt A0A1D8PMH7 1-58, looked up)
chain: MPPDPNSMIVELARLMNCVQLDETVLQLCIKLLDEGANPQQLAKHILAIKKETNSILT
stoichiometry N [10]: 3 to 4
